Experimental data from publication PMC11847480.

Molecular target: gp130 (human (endogenous in TF-1)) (UniProt P40189)
Sequence (P40189 23-918): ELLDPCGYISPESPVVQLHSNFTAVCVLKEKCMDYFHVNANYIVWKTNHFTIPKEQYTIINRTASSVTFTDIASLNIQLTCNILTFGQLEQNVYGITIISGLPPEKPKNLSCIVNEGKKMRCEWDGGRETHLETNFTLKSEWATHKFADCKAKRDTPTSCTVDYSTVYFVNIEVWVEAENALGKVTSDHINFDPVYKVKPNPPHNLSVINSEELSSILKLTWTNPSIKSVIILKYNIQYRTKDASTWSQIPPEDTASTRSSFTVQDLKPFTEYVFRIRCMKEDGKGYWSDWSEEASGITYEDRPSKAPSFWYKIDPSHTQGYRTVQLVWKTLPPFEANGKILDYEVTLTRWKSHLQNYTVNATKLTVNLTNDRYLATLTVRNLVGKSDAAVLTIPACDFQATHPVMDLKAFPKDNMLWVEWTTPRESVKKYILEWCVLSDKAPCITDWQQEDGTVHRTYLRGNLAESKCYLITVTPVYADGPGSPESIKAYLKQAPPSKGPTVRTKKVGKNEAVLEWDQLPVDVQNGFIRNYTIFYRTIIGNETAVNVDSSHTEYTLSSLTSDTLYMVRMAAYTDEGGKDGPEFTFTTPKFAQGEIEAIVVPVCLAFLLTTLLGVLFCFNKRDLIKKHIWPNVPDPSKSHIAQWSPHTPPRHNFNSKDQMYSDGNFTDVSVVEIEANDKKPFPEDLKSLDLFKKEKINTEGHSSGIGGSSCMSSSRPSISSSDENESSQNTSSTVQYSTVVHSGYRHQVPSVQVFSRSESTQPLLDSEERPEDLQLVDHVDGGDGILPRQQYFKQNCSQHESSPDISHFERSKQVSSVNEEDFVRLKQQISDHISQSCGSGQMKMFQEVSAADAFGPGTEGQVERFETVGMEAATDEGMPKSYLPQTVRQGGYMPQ

Chain of LIF with truncation of the N-terminal region (P15018 23-202): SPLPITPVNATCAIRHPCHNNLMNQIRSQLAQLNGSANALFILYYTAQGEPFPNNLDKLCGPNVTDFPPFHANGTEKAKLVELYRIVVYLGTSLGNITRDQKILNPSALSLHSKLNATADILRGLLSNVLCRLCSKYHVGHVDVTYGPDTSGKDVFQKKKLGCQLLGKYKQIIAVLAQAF

Substance | TF-1 cell proliferation activity against wild-type LIF | TF-1 cell proliferation, fold change of EC50 against wild-type LIF
LIF with truncation of the N-terminal region (from UniProt P15018 23-202) (ligand) | 1 fold | 
LIF 3E (R37E, H38E and H41E) (from UniProt P15018 23-202) (ligand) |  | 4 fold
LIF 2E (R37E and H38E) (from UniProt P15018 23-202) (ligand) |  | 3 fold
